Earlier results in publication PMC12073169.

Molecular target: ATG3 (Homo sapiens) (UniProt Q9NT62)
Chain of UniProt Q9NT62 (Q9NT62 whole entry): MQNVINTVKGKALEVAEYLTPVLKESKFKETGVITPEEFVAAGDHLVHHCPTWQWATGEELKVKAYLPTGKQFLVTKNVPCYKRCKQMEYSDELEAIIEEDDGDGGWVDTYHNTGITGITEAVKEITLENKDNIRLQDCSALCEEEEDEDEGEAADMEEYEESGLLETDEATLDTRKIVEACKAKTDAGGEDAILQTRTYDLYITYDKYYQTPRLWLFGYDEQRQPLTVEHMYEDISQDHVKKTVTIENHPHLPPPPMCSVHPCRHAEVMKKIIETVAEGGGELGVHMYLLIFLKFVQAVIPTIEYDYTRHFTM

Kd: 350 nM
Substance: ATG7 (from UniProt O95352)
